{"source": "patent US20230310629A1", "about": "“BISPECIFIC ANTIBODY-DRUG CONJUGATES TARGETING EGFR AND MUC1 AND USES THEREOF” (Merck Patent GmbH, priority 2020, published 2023)", "molecules": {"B1": {"name": "1993-H02: anti-MUC1 antibody variant from affinity maturation of HT186-D11, with HT186-D11 light chain; developed as scFv (antibody, V domains shown)", "VH": "QMQLVQSEAELKKPGASVKVSCKASGYSFTSHFMHWVRQAPGQGLEWMGWIDPVTGGTKYAQNFQGWVTMTRDTSIRTAYLELSRLRSDDTAMYYCAREARADRGQFDKWGQGTLVTVAS", "VL": "QSVLTQPPSVSVAPGKTARITCGGNNIGSKSVHWYQQKPGQAPALVIYYGSNRPSGIPERFSGSNSGNTATLTISRVEAGDEADYYCQVWDSSSDWVFGGGTKLTVL"}}, "key": {"[1]": {"system": "WISH cells", "test": "WISH cell binding (Example 1)", "design": "species or system human; unit not given here"}, "[2]": {"target": "human MUC1-VNTR peptide (Homo sapiens, UniProt P15941)", "test": "Biacore binding to human MUC1-VNTR peptide (Example 1)", "description": "An anti-MUC1 scFv (H02) was developed by affinity maturation of anti-MUC1 antibody HT186-D11 (see Thie H. et al. PLoS One […], 6, 1, e15921) using ribosome display selection. For the scFv library, CDRs H1, H2, H3 and L3 (SEQ ID NOs: 4, 5, 6, and 9) were targeted. scFv ribosome display selections were then performed against a biotinylated synthetic VNTR peptide of MUC ([…]-biotin) (SEQ ID NO:10)."}, "[3]": {"settings": "human MUC1-VNTR, second data set"}}}
{"molecule": "B1", "values": [{"measurement": "Bmax", "setting": "[1]", "result": 128920}, {"measurement": "kd", "setting": "[2]; human MUC1-VNTR peptide, first data set", "result": "2.14E−04 ½"}, {"measurement": "ka1", "setting": "[2]; [3]", "result": 126000, "unit": "M⁻¹ s⁻¹"}, {"measurement": "kd1", "setting": "[2]; [3]", "result": 0.0017, "unit": "s⁻¹"}, {"measurement": "Turbidity A600", "result": 0.15}]}
